From patent publication US20240425607A1, “IL-18BP ANTAGONIST ANTIBODIES AND THEIR USE IN MONOTHERAPY AND COMBINATION THERAPY IN THE TREATMENT OF CANCER” (Compugen Ltd., priority 2023, published 2024)

Legend:
[1] = system: MC38ova tumor-bearing mice; test: Peripheral effects in MC38ova tumor-bearing mice: anti-mIL18BP vs engineered mIL-18; assay type: in vivo; conditions: mouse, in vivo
Procedure: Nine days pre-inoculum, vials of MC38ova^dim cells were thawed into RPMI media containing 10% FBS, 1% Glutamax, 1% Sodium pyruvate, 1% HEPES, 1% NEAA, 0.01% 2-mercaptoethanol, 1% Penicillin-Streptomycin. Following centrifugation at 300×g for 8 min, cell pellet was resuspended, counted and seeded in a T175 flask. On days −7, −5 and −2, the cells were detached and re-seeded at 6-8*10^6 cells/T175 flask. On the day of inoculum, the cells were detached, centrifuged at 300×g for 10 min, filtered through […] cell strainer and resuspended in RPMI.
Experiments were performed in C57Bl/6 (female, 6-8 wk, Envigo). Mice were anesthetized with 10% Ketamine and 10% Xylazine mixture injected intraperitoneal. Next, mice were inoculated with MC38ova cells (1.2×10^6) subcutaneously to the right flank in 50 μl/mice.
At tumor volume of −120 mm^3 (day 9), mice were randomly assigned into treatment groups. Mice were treated with Synagis mouse IgG1, k isotype control 15 mg/kg (IP), anti-mIL18 bp 837 mIgG1 15 mg/kg (IP), PBS (SC), or engineered IL-18 (SC) 0.32 mg/kg. Treatments were injected twice a week for a total of 6 treatments. […] Mice were weighed every week. Mice were bled before the 4th treatment, 4 hours after the 4th treatment, and 24 hours after the 4th treatment. Serum was analyzed for presence of IFNg, TNFα, MCP1, IL6 by Cytometric Bead Array (CBA) Mouse Inflammation Kit (BD Cat. No. 552364). Spleens were harvested from mice 24 hours after the 4th treatment and weighed. For IL15 experiments, mice were treated with a single dose of 0.5 μg, 1.5 μg of IL15, or with a mix of 0.5 μg IL15 and 2.33 μg IL15R.
Spleens were crushed into 40 μm filters and red blood cells were lysed. Single-cell suspensions were seeded into a 96-well V-bottomed plate. Cells were labeled for viability and dead cells were excluded using the Fixable Viability Stain 450 (BD Bioscience Cat #562247). To block Fcγ receptors, cells were incubated with 10 μg/mL of Purified Rat Anti-Mouse CD16/CD32 (Mouse BD Fc Block™, BD Bioscience Cat #553142) in cold 1×PBS buffer for 10 minutes. Various immune populations were stained with anti-mouse antibodies (Table 17). After washing (1% BSA, 0.1% sodium azide, in PBS), cells were acquired on FACS Fortessa cytometer (BD Bioscience). Analysis was done using FlowJo.

IL18-BP = molecular target: T1, IL18-BP (Mus musculus, UniProt Q9Z0M9); conditions: cited from earlier work
T1 sequence (Q9Z0M9 29-193): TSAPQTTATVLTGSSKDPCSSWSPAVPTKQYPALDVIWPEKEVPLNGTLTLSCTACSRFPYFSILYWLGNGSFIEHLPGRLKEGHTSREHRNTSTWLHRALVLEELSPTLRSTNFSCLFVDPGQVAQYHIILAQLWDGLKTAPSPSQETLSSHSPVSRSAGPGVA

B1: engineered mIL-18: Engineered IL-18 of US 20190070262A1, SEQ ID NO: 1920 (protein)
chain: HFGRLHCTTAVIRNINDQVLFVDKRQPVFEDMTDIDQSASEPQTRLIIYAYGDSRARGKAVTLSVKDSKMSTLSCKNKIISFEEMDPPENIDDIQSDLIFFQKRVPGHNKMEFESSLYEGHFLACQKEDDAFKLILKKKDENGDKSVMFTLTNLHQSHHHHHH
[1]
  Activation state of splenic lymphocytes vs control: significantly more CD69+CD4+ T-cells, CD69+CD8 T-cells, CD69+B Cells, CD107+NK cells, and CD69+CD107+ NKT cells
  Serum levels of IL18, 4 hours after the 4th treatment: very high serum levels of IL18
  Serum levels of IL18, 24 hours after the 4th treatment: returned to baseline
  Spleen enlargement vs control, average: 4.9 folds
  Splenic CD45+ immune cells, CD3+ T cells and CD19+ B cells vs control: larger number of CD45+ immune cells, as well as CD3+ T cells and CD19+B cells
IL18-BP
  Binding to IL18-BP: not to bind IL18-BP
